# Results from patent publication US20090304717A1.
# How the values were obtained:
# [1] = target: PSMA (prostate-specific membrane antigen) (UniProt Q04609); test: flow; conditions: LNCaP cells, on ice, sigmoidal fit
# [2] = target: PSMA (prostate-specific membrane antigen) (UniProt Q04609); test: cell_activity; conditions: cytotoxicity on LNCaP, no effect on PSMA-negative MCF-7
# [3] = 2'-F pyrimidines (library chemistry)
# Sequence of UniProt Q04609 (Q04609 whole entry): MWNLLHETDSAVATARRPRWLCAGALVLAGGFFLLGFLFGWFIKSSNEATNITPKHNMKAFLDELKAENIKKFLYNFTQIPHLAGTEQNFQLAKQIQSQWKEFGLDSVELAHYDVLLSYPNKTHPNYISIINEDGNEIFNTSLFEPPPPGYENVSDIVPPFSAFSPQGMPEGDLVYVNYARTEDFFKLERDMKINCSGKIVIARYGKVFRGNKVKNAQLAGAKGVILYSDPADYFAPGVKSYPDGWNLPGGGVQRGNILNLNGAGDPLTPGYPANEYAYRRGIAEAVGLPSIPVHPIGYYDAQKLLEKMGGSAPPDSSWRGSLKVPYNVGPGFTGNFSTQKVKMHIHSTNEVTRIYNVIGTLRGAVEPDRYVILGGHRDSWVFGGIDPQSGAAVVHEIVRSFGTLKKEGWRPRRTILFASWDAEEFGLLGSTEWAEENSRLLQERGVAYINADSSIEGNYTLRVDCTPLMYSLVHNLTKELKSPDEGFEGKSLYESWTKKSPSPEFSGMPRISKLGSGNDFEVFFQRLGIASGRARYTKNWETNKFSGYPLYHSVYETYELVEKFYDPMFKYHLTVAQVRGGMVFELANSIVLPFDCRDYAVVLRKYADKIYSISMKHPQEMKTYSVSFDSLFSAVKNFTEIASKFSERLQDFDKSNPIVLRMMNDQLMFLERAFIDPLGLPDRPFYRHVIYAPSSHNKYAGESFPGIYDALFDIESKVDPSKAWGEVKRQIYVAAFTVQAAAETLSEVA
sequence,measurement,setting,value
GGGAGGACGAUGCGGAUCAGCCAUGUUUACGUCACUCCUUGUCAAUCCUCAUCGGCAGCGCCAUCAUGGACAAGAAUUGAAGCUUCUUCUUGUCCAUGAUGGCGCGG [xPSM-A-3-siEEF2],Kd,[1]; [3],26.7 nM
same,EC50,[2]; [3],1510 nM
GGGAGGACGAUGCGGAUCAGCCAUGUUUACGUCACUCCUUGUCAAUCCUCAUCGGCUAAAAAUUGCGCCAUCAUGGACAAGAAUU / GGGAGGACGAUGCGGAUCAGCCAUGUUUACGUCACUCCUUGUCAAUCCUCAUCGGCAAAAAUUCUUGUCCAUGAUGGCGCGG [PSMA biv anneal siEEF2 (1+2 annealed)],Kd,[1]; transcribed with Durascribe T7 kit (kit implies 2'-F pyrimidines),46.5 nM
GGGAGGACGAUGCGGAUCAGCCAUGUUUACGUCACUCCUUGUCAAUCCUCAUCGGCUAAAAAUUGCGCCAUCAUGGACAAGAAUUAAUUAAGGGAGGACGAUGCGGAUCAGCCAUGUUUACGUCACUCCUUGUCAAUCCUCAUCGGCAAAAAUUCUUGUCCAUGAUGGCGCGGGAGCUCGAAUU [PSMB1-siEEF2],EC50,"[2]; transcribed with Durascribe T7 kit (kit implies 2'-F pyrimidines), +/-0.1246",517 nM
GGGAGGACGAUGCGGAUCAGCCAUGUUUACGUCACUCCUUGUCAAUCCUCAUCGGCUAAAAUUAGGCCUAUCUGCCCGUCAAUUAAAAAUUGGGAGGACGAUGCGGAUCAGCCAUGUUUACGUCACUCCUUGUCAAUCCUCAUCGGCAGCGCCAUCAUGGACAAGAAUUGAAGCUUCUUCUUGUCCAUGAUGGCGCGGAAAAAAAUUGACGGGCAGAUAGGCCUUUGAGCUCGAAUU [PSMB2-siEEF2],EC50,"[2]; transcribed with Durascribe T7 kit (kit implies 2'-F pyrimidines), +/-0.01282",212 nM
